From patent US20050244828A1

Target: CD22-Fc fusion protein (extra-cellular domain of human CD22 fused to human IgG Fc) (human) (UniProt P20273)

**Q.** How did the percent inhibition of measured sCD22 level turn out when “BL22, a recombinant immunotoxin containing the FV domains of RFB4 fused to PE38, a truncated form of (from UniProt P11439 278-638)” was run?
**A.** 50%
